Experimental findings from patent publication US20020155547A1 (Biogen, published 2002) are described below.

For experiment [1], the target named is T1, type I interferon cell surface receptor complex (IFNAR1/2 complex) expressed on Daudi Burkitt's lymphoma cells (human, UniProt P17181 28-557; P48551 27-515).
T1 construct: whole, on cells; Both chains together comprise the receptor for interferon-beta on the cells of the FACS assay; also called IFNAR1/2 cell surface receptor; cognate receptor on Daudi cells
T1 sequence (looked up) 1: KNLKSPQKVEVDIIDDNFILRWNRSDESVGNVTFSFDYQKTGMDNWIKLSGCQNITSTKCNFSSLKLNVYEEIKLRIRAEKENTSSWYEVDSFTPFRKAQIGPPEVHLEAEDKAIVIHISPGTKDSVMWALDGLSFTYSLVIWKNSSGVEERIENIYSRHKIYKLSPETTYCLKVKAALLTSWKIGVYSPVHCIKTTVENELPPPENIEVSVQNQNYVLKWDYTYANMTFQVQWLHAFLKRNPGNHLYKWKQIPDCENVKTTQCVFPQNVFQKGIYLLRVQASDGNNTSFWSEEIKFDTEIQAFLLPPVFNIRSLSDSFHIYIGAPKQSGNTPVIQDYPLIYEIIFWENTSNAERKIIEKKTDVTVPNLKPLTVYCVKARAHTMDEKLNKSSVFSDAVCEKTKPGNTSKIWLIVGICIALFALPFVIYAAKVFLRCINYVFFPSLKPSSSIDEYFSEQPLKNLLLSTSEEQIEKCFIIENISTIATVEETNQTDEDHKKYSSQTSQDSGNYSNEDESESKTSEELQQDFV
T1 sequence (looked up) 2: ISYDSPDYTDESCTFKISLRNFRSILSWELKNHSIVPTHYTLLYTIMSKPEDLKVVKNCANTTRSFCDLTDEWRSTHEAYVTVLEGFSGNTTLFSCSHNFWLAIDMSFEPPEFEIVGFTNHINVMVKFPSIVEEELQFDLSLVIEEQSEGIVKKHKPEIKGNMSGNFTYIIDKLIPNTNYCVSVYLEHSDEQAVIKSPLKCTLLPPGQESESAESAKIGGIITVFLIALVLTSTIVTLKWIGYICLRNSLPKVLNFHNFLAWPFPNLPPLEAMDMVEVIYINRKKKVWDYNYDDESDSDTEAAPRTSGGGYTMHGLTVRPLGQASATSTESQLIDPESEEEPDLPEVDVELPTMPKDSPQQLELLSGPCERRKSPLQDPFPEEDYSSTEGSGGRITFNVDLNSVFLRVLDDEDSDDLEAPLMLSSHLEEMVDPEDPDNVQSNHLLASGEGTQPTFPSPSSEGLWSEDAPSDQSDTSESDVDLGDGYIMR
Put plainly: FACS receptor binding assay on Daudi cells; wild type is the reference (100 %), its value is not given. Here is the method: A second receptor binding assay was used to measure the affinity with which the interferon-beta mutants bound to Daudi cells expressing both receptor chains, IFNAR1 and IFNAR2, which together comprise the receptor for interferon-beta. This FACS-based assay used a blocking monoclonal antibody directed against the extracellular domain of IFNAR1, EA12 (Biogen, Inc.), to distinguish unoccupied (free) receptor from receptor to which interferon-beta was bound. Daudi cells (20 μl at 2.5×10⁷ cells/ml) were placed in 96-well V-bottom ELISA plates, and incubated for 1 hour at 4° C. with various concentrations of interferon-beta mutant (20 μl in FACS buffer; 5% FBS, 0.1% NaN₃ in PBS). Desirable serial dilutions of interferon-beta mutants ranged from 0.5 μM down to 0.5 pM. To each well was added 100 ng of biotinylated murine anti-IFNAR1 monoclonal antibody EA12 (10 μl), and the plates incubated for an additional 2 minutes at room temperature before being washed twice with FACS buffer (4° C.). […] The samples were then analyzed by flow cytometry on a FACScan (Becton Dickinson). […]

The target in experiment [2] is T2, IFNAR2/Fc fusion protein (extracellular domain of the human IFNAR2 receptor chain fused to the hinge, CH2 and … (human, UniProt P48551 27-243)).
T2 construct: extracellular domain; also called IFNAR2-ectodomain/Fc fusion protein; IFNAR/Fc; not shown: human IgG1 heavy chain constant region: hinge, CH2 and CH3 domains
T2 sequence (looked up): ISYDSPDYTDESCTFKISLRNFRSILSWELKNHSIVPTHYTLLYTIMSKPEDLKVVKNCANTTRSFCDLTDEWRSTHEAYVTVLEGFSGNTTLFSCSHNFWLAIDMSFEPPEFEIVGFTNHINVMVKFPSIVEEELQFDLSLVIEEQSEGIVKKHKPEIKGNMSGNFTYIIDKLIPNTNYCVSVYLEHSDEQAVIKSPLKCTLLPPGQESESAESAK
In words: ELISA on captured IFNAR2-Fc; wild type is the reference (100 %), its EC50 is not given. Here is the method: The receptor binding properties of the Interferon-beta mutants described in C were assessed using two different binding assays. One assay measured binding of the interferon-beta mutants to a fusion protein, IFNAR2/Fc, comprising the extracellular domain of the human IFNAR2 receptor chain fused to part of the constant region of a human IgG. IFNAR2-Fc was expressed in chinese hamster ovary (CHO) cells and purified by protein A sepharose affinity chromatography according to the instructions of the manufacturer (Pierce Chem. Co., Rockford, Ill., catalog #20334). The binding of interferon-beta mutants to IFNAR2-Fc was measured in an ELISA format assay. […] Binding of the interferon-beta mutants to IFNAR2-Fc was measured by adding 50 μl/well mutant interferon-beta in conditioned media, serially diluted in Dulbecco's Modified Eagle's Medium (DMEM) supplemented with 10% fetal bovine serum, and incubating for 2 hours at 4° C. […] After washing, interferon-beta bound to the plates was detected by adding 50 μl/well of a cocktail consisting of a 1:1000 dilution of a rabbit polyclonal anti-interferon antibody (#447, Biogen, Inc.) plus horseradish peroxidase (HRP)-labelled donkey anti-rabbit IgG (Jackson ImmunoResearch), and incubating for 15 minutes at 4° C. […]
On the technique in general: An ELISA detects its analyte on a solid surface through an enzyme-linked reagent.

The target of experiment [3] is T2, IFNAR2/Fc fusion protein (extracellular …). In words: ELISA, IFNAR2-Fc captured on anti-human IgG1 antibody, mutant in conditioned medium. Here is the method:
The receptor binding properties of the Interferon-beta mutants described in C were assessed using two different binding assays. One assay measured binding of the interferon-beta mutants to a fusion protein, IFNAR2/Fc, comprising the extracellular domain of the human IFNAR2 receptor chain fused to part of the constant region of a human IgG. IFNAR2-Fc was expressed in chinese hamster ovary (CHO) cells and purified by protein A sepharose affinity chromatography according to the instructions of the manufacturer (Pierce Chem. Co., Rockford, Ill., catalog #20334). The binding of interferon-beta mutants to IFNAR2-Fc was measured in an ELISA format assay. ELISA plates were prepared by coating flat-bottomed 96 well plates overnight at 4° C. with 50 μl/well of mouse anti-human IgG1 monoclonal antibody (CDG5-AA9, Biogen, Inc.) at 10 μg/ml in coating buffer (50 mM NaHCO₃, 0.2 mM MgCl₂, 0.2 mM CaCl₂, pH 9.6). Plates were washed twice with PBS containing 0.05% Tween-20, and blocked with 0.5% non-fat dry milk in PBS for 1 hour at room temperature. After two more washes, 50 μl of 1 μg/ml IFNAR2-Fc in 0.5% milk in PBS containing 0.05% Tween-20 was added to each well and incubated for 1 hour at room temperature, and the plates were then washed twice more. Binding of the interferon-beta mutants to IFNAR2-Fc was measured by adding 50 μl/well mutant interferon-beta in conditioned media, serially diluted in Dulbecco's Modified Eagle's Medium (DMEM) supplemented with 10% fetal bovine serum, and incubating for 2 hours at 4° C. Dilutions of interferon-beta mutant typically ranged from approximately 1 μM down to 10 pM. After washing, interferon-beta bound to the plates was detected by adding 50 μl/well of a cocktail consisting of a 1:1000 dilution of a rabbit polyclonal anti-interferon antibody (#447, Biogen, Inc.) plus horseradish peroxidase (HRP)-labelled donkey anti-rabbit IgG (Jackson ImmunoResearch), and incubating for 15 minutes at 4° C. After two washes, HRP substrate was added, and the plate was incubated at 4° C. before being read on an ELISA plate reader at an absorbance of 450 nm. Data were plotted as absorbance versus the concentration of mutant interferon-beta, and the affinity for the binding of the mutant interferon-beta to IFNAR2-Fc was determined by fitting the data to a simple hyperbolic binding equation.

Experiment [4] shares this target. Put plainly: ELISA on captured IFNAR2-Fc. As to the method:
FIG. 3. Binding of alanine substituted interferon-beta mutants to a dimeric fusion protein comprised of the extracellular domain of the type I interferon receptor chain, IFNAR2/Fc. The binding affinities of the alanine substituted IFN mutants (A1-E) for the IFNAR2 receptor chain were determined as described in Example 1 (subsection D). The histogram presents their binding affinities in this assay relative to wild type his-IFN-beta (% w.t.). The % w. t. values were calculated as the (affinity of wild type his-IFN-beta)/(affinity of mutant IFN-beta)×100. The % w. t. (x) for multiple assays (n=3) and an average % w.t. (x) for the experimental set are shown.
The receptor binding properties of the Interferon-beta mutants described in C were assessed using two different binding assays. One assay measured binding of the interferon-beta mutants to a fusion protein, IFNAR2/Fc, comprising the extracellular domain of the human IFNAR2 receptor chain fused to part of the constant region of a human IgG. IFNAR2-Fc was expressed in chinese hamster ovary (CHO) cells and purified by protein A sepharose affinity chromatography according to the instructions of the manufacturer (Pierce Chem. Co., Rockford, Ill., catalog #20334). The binding of interferon-beta mutants to IFNAR2-Fc was measured in an ELISA format assay. ELISA plates were prepared by coating flat-bottomed 96 well plates overnight at 4° C. with 50 μl/well of mouse anti-human IgG1 monoclonal antibody (CDG5-AA9, Biogen, Inc.) at 10 μg/ml in coating buffer (50 mM NaHCO₃, 0.2 mM MgCl₂, 0.2 mM CaCl₂, pH 9.6). Plates were washed twice with PBS containing 0.05% Tween-20, and blocked with 0.5% non-fat dry milk in PBS for 1 hour at room temperature. After two more washes, 50 μl of 1 μg/ml IFNAR2-Fc in 0.5% milk in PBS containing 0.05% Tween-20 was added to each well and incubated for 1 hour at room temperature, and the plates were then washed twice more.

Substitutions are numbered along the chain they refer to.

B1: histidine tagged wild-type interferon-beta-1a (ligand)
chain: SGGHHHHHHSSGDDDDKMSYNLLGFLQRSSNFQCQKLLWQLNGRLEYCLKDRMNFDIPEEIKQLQQFQKEDAALTIYEMLQNIFAIFRQDSSSTGWNETIVENLLANVYHQINHLKTVLEEKLEKEDFTRGKLMSSLHLKRYYGRILHYLKAKEYSHCAWTIVRVEILRNFYFINRLTGYLRN
modifications: glycosylated at Asn 80 of the interferon-beta moiety (expressed in human EBNA 293 cells)
notes: Tested as conditioned medium of transfected EBNA 293 cells; also called his IFN-beta; His6-tagged
In the case of B1, the binding result in experiment [1] and in experiment [2] was “binds” each time.

B2: his tagged interferon-beta alanine substitution mutant AB2 (ligand)
chain: B1 chain with M53A, N54A, D56A, E59A
modifications: glycosylated at Asn 80 of the interferon-beta moiety
Take B2: in experiment [3], the binding result is listed as “no binding”. Further, in experiment [4], the “concentration tested relative to the w.t. his-IFN-beta EC50” value was 500 fold.

B3: his tagged interferon-beta alanine substitution mutant A2 (ligand)
chain: B1 chain with F32A, Q33A, Q35A, K36A, W39A, Q40A
modifications: glycosylated at Asn 80 of the interferon-beta moiety
notes: also called A2 helix
Turning to B3, the binding result in experiment [3] is recorded as “no binding”. Further, the “concentration tested relative to the w.t. his-IFN-beta EC50” value in experiment [4] stood at 500 fold.

B4: his tagged interferon-beta alanine substitution mutant E (ligand)
chain: B1 chain with V165A, R169A, Y172A, N175A
modifications: glycosylated at Asn 80 of the interferon-beta moiety
notes: also called E helix
Take B4: the binding result in experiment [3] is reported as “no binding”. Besides, in experiment [4], the “concentration tested relative to the w.t. his-IFN-beta EC50” value was 500 fold.

B5: his tagged interferon-beta alanine substitution mutant AB1 (ligand)
chain: B1 chain with L45A, E46A, Y47A, L49A, K50A
modifications: glycosylated at Asn 80 of the interferon-beta moiety
For the molecule B5, the binding result in experiment [3] is “no binding”. The “concentration tested relative to the w.t. his-IFN-beta EC50” value in experiment [4] came to 500 fold.
